{
  "source": "patent US20220160843A1",
  "about": "(priority 2019, published 2022)",
  "molecules": {"B1": {"name": "GN9: Native lysin, GenBank ECJ78460.1, SEQ ID NO: 21 (protein)", "chain": "MKNFNEIIEHVLKHEGGYVNDPKDLGGETKYGITKRFYPDLDIKNLTIEQATEIYKKDYWDKNKVESLPQNLWHIYFDMCVNMGKRTAVKVLQRAAVNRGRDIEVDGGLGPATIGALKGVELDRVRAFRVKYYVDLITARPEQEKFYLGWFRRATEV", "modifications": "Marine metagenome"}, "B2": {"name": "GN10: Native lysin, GenBank YP_002600773.1, SEQ ID NO: 22 (protein)", "chain": "MSKQGGVKVAQAVAALSSPGLKIDGIVGKATRAAVSSMPSSQKAATDKILQSAGIGSLDSLLAEPAAATSDTFREVVLAVAREARKRGLNPAFYVAHIALETGWGRSVPKLPDGRSSYNYAGLKYAAVKTQVKGKTETNTLEYIKSLPKTVRDSFAVFASAGDFSRVYFWYLLDSPSAYRYPGLKNAKTAQEFGDILQKGGYATDPAYAAKVASIASTAVARYGSDVSSVA", "modifications": "Pseudomonas phage phi2954"}, "B3": {"name": "GN105: Native lysin, GenBank WP_016046696.1, SEQ ID NO: 25 (protein, listed as Pseudomonas aeruginosa)", "chain": "MAVVSEKTAGGRNVLAFLDMLAWSEGTSTIRGSDNGYNVVVGGGLFNGYADHPRLKVYLPRYKVYSTAAGRYQLLSRYWDAYRESLALKGGFTPSNQDLVALQQIKERRSLADIQAGRLADAVQKCSNIWASLPGAGYGQREHSLDDLTAHYLAAGGVLS"}},
  "key": {"[1]": {"system": "P. aeruginosa strain ATCC 17647", "experiment": "Minimal Biofilm Eradicating Concentration (MBEC), Calgary Biofilm Device", "type": "cell-based, Pseudomonas aeruginosa", "conditions": "24 h biofilm, 24 h treatment; minimum concentration removing >95% of biofilm biomass (crystal violet)", "description": "All samples were examined in triplicate."}, "[2]": {"system": "human erythrocytes", "type": "cell-based", "method": "The hemolytic activity of the GN lysins was measured as the amount of hemoglobin released by the lysis of human erythrocytes (30). Briefly, 3 ml of fresh human blood cells (hRBCs) obtained from pooled healthy donors (BioreclamationIVT) in a polycarbonate tube containing heparin was centrifuged at 1,000×g for 5 min at 4° C. The erythrocytes obtained were washed three times with phosphate-buffered saline (PBS) solution (pH 7.2) and resuspended in […]. […] Intact erythrocytes were pelleted by centrifugation at 1,000×g for 5 min at 4° C., and the supernatant was transferred to a new 96-well plate. The release of hemoglobin was monitored by measuring the absorbance at 570 nm."}, "[3]": {"system": "P. aeruginosa", "experiment": "Time-kill assay of GN lysin activity", "type": "cell-based, Pseudomonas aeruginosa", "conditions": "lysin 10 μg/mL, T = 0 7.8; for Log10 CFU/mL T = 3 hr: buffer control 7.2, limit of detection 3.7; for Log10 CFU/mL T = l hr: buffer control 7.7", "method": "All treatments were incubated at 37° C. with aeration."}, "[4]": {"system": "P. aeruginosa", "experiment": "Minimal inhibitory concentration (MIC), modified CLSI broth microdilution in CAA or CAA/HuS", "type": "cell-based, Pseudomonas aeruginosa", "conditions": "for MIC (μg/mL) in CAA: CAA media; for MIC (μg/mL in CAA/HuS): CAA supplemented with 25% human serum"}, "[5]": {"conditions": "CAA/HuS, ‡ indicates bactericidal activity"}, "[6]": {"conditions": "HEPES buffer, ‡ indicates bactericidal activity"}},
  "data": [
    {"molecule": "B1", "values": [
      {"measurement": "MBEC", "setting": "[1]", "value": 0.125, "unit": "µg/mL"},
      {"measurement": "hemolytic activity", "setting": "[2]", "value": "no hemolytic activity whatsoever"},
      {"measurement": "Log10 CFU/mL T = 3 hr", "setting": "[3]; [5]", "value": 7.3, "unit": "Log10 CFU/mL"},
      {"measurement": "Log10 CFU/mL T = l hr", "setting": "[3]; CAA/HuS", "value": 6.8, "unit": "Log10 CFU/mL"},
      {"measurement": "Log10 CFU/mL T = 3 hr", "setting": "[3]; [6]", "value": 5.7, "unit": "Log10 CFU/mL"},
      {"measurement": "Log10 CFU/mL T = l hr", "setting": "[3]; [6]", "value": 6.7, "unit": "Log10 CFU/mL"},
      {"measurement": "MIC (μg/mL) in CAA", "setting": "[4]", "value": 8, "unit": "µg/mL"},
      {"measurement": "MIC (μg/mL in CAA/HuS)", "setting": "[4]", "value": 2, "unit": "µg/mL"}
    ]},
    {"molecule": "B2", "values": [
      {"measurement": "MBEC", "setting": "[1]", "value": 0.5, "unit": "µg/mL"},
      {"measurement": "hemolytic activity", "setting": "[2]", "value": "no hemolytic activity whatsoever"},
      {"measurement": "Log10 CFU/mL T = 3 hr", "setting": "[3]; [5]", "value": 7.4, "unit": "Log10 CFU/mL"},
      {"measurement": "Log10 CFU/mL T = l hr", "setting": "[3]; CAA/HuS", "value": 7.4, "unit": "Log10 CFU/mL"},
      {"measurement": "Log10 CFU/mL T = 3 hr", "setting": "[3]; [6]", "value": "<3.7‡ Log10 CFU/mL"},
      {"measurement": "Log10 CFU/mL T = l hr", "setting": "[3]; [6]", "value": 5.7, "unit": "Log10 CFU/mL"},
      {"measurement": "MIC (μg/mL) in CAA", "setting": "[4]", "value": 8, "unit": "µg/mL"},
      {"measurement": "MIC (μg/mL in CAA/HuS)", "setting": "[4]", "value": 16, "unit": "µg/mL"}
    ]},
    {"molecule": "B3", "values": [
      {"measurement": "MBEC", "setting": "[1]", "value": 4, "unit": "µg/mL"},
      {"measurement": "hemolytic activity", "setting": "[2]", "value": "no hemolytic activity whatsoever"},
      {"measurement": "Log10 CFU/mL T = 3 hr", "setting": "[3]; [5]", "value": 6.3, "unit": "Log10 CFU/mL"},
      {"measurement": "Log10 CFU/mL T = l hr", "setting": "[3]; CAA/HuS", "value": 7.0, "unit": "Log10 CFU/mL"},
      {"measurement": "Log10 CFU/mL T = 3 hr", "setting": "[3]; [6]", "value": "<3.7", "unit": "Log10 CFU/mL"},
      {"measurement": "Log10 CFU/mL T = l hr", "setting": "[3]; [6]", "value": 6.6, "unit": "Log10 CFU/mL"},
      {"measurement": "MIC (μg/mL) in CAA", "setting": "[4]", "value": ">128", "unit": "µg/mL"},
      {"measurement": "MIC (μg/mL in CAA/HuS)", "setting": "[4]", "value": 32, "unit": "µg/mL"}
    ]}
  ]
}
